Columns and labels:
[1] = target: T1, EpCAM (native, on primary lung cancer cells) (Homo sapiens (patient NSCLC tumor cells)) (UniProt P16422); experiment: competition (flow cytometry); details: DPBS, 25 °C, 30 min; cells (3×10^5) pre-incubated with 1 ng/uL salmon sperm DNA; DNA pools/library heated to 95 °C 5 min then on ice 10 min; pH not stated
T1 sequence: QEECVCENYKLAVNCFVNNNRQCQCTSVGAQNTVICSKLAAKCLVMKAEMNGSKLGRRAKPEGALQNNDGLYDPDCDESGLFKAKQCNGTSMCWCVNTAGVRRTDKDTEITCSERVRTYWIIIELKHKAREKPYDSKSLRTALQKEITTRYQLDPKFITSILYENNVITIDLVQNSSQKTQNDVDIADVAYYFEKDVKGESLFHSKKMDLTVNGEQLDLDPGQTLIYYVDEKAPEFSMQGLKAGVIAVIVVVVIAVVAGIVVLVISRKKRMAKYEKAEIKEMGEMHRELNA

[2] = target: T1, EpCAM (native, on primary lung cancer cells) (Homo sapiens (patient NSCLC tumor cells)); experiment: flow cytometry (cell binding); details: apparent Kd on whole primary lung cancer cells; 1-300 nM aptamer; DPBS, 25 °C, 30 min; cells (3×10^5) pre-incubated with 1 ng/uL salmon sperm DNA; DNA pools/library heated to 95 °C 5 min then on ice 10 min; pH not stated

**Q.** Which binding signal (% displaced by antibody) [1] does the source give for “CTCCTCTGACTGTAACCACGACACGCACAAATGTCAGTGTACCGCACTCGCACATTCTTAGCATAGGTAGTCCAGAAGCC [EPCAM-APT-01 (ECM_01)]” here?
**A.** 15

**Q.** What about the Kd [2] of the same sequence?
**A.** 0.025 µM

**Q.** For “CTCCTCTGACTGTAACCACGGTGCGCGTACCACCATGTGTACACACTGCATGTTTGGTTAGCATAGGTAGTCCAGAAGCC [EPCAM-APT-02 (ECM_02)]”, which binding signal (% of cells releasing aptamer) [1] is on record?
**A.** 18

**Q.** What about the Kd [2] of the same sequence?
**A.** 0.015 µM
